# Assay: soluble on expression in E. coli; label from the status in PepcDB or PDB records
row,Sequence,soluble on expression in E. coli
1,KKNLLYLGLTGYLLFALCTRLQAQTDSLQAHRYVTRATMYGVGFTNVFDTYLSPQEYKGIDFRISRETIRMTKLFDGNVSVQNFFQADVGYTHNRADNNNTFSGLVNWNYGLHYQFRLTENFKLLAGGLFDVNGGFVYNLRNSNNPASARAYVNLDASGMAIWHLKIKRYPMVLRYQVNVPMIGLMFSPHYGQSYYEIFSLGNSSGVIQFTSLHNQPSLRQMLSVDLPIGYTKMRFSYLADLQQSNVNGIKTHTYSHVFMVGFVKDLYRVSNKKGANLPPSVRAY,not soluble
2,KLKDIAKKILVGGEKPSDFQKEKDQVYKYPILSNSRKADDFLGYSKTFRIAEKSITVSARGTIGAVFYRDFSYLPAVSLICFIPKPEFNINFLFHALKATKFHKQGSGTGQLTMAQFKEYQVYIPSLKKQQEIAATLDP,soluble
3,KMKLYNFWRSGTSHRLRIALNLKGVPYEYLAVHLGKEEHLKDAFKALNPQQLVPALDTGAQVLIQSPAIIEWLEEQYPTPALLPADADGRQRVRALAAIVGCDIHPINNRRILEYLRKTFGADEAAINAWCGTWISAGFDAYEALLAVDPKRGRYSFGDTPTLADCYLVPQVESARRFQVDLTPYPLIRAVDAACGELDAFRRAAPAAQPDSA,soluble
4,KNYDLSDLPGPPSKPQVTDVTKNSVTLSWQPGTPGTLPASAYIIEAFSQSVSNSWQTVANHVKTTLYTVRGLRPNTIYLFMVRAINPQGLSDPSPMSDPVRTQD,soluble
5,KPGAPWWKSAVFYQVYPRSFKDTNGDGIGDFKGLTEKLDYLKGLGIDAIWINPHYASPNTDNGYDISDYREVMKEYGTMEDFDRLMAELKKRGMRLMVDVVINHSSDQHEWFKSSRASKDNPYRDYYFWRDGKDGHEPNNYPSFFGGSAWEKDPVTGQYYLHYFGRQQPDLNWDTPKLREELYAMLRFWLDKGVSGMRFDTVATYSKTPGFPDLTPEQMKNFAEAYTQGPNLHRYLQEMHEKVFDHYDAVTAGEIFGAPLNQVPLFIDSRRKELDMAFTFDLIRYDRALDRWHTIPRTLADFRQTIDKVDAIAGEYGWNTFFLGNHDNPRAVSHFGDDRPQWREASAKALATVTLTQRGTPFIFQGDELGMTNYPFKTLQDFDDIEVKGFFQDYVETGKATAEELLTNVALTSRDNARTPFQWDDSANAGFTTGKPWLKVNPNYTEINAAREIGDPKSVYSFYRNLISIRHETPALSTGSYRDIDPSNADVYAYTRSQDGETYLVVVNFKAEPRSFTLPDGMHIAETLIESSSPAAPAAGAASLELQPWQSGIYKVK,soluble
6,KPPDPPNRVPEKKVVETSAFGHHVQLVNREGKAVGFIEIKESDDEGLDIHISANSLRPGASLGFHIYEKGSCVRPDFESAGGHFNPLNKEHGFNNPMGHHAGDLPNLEVGADGKVDVIMNAPDTSLKKGSKLNILDEDGSAFIIHEQADDYLTNPSGNSGARIVCGALLGNNEKQ,soluble
7,KPTEPHQFAQQVLYDLDQQPRIIAQLSHQQPMLLYFWGTWCRYCQFTSAAVQQLANEKIPILTIALKSGDEQDISNNYLTQQKYTFPTINDPDGNIAKNWTIQATPTIIFIKDGKIVEYTTGLTSYWGLKSRLW,not soluble
8,KRELTVLDLHPGAGKTRRVLPQLVREAVKKRLRTVILAPTRVVASEMYEALRGEPIRYMTPAVQSERTGNEIVDFMCHSTFTMKLLQGVRVPNYNLYIMDEAHFLDPASVAARGYIETRVSMGDAGAIFMTATPPGTTEAFPPSNSPIIDEETRIPDKAWNSGYEWITEFDGRTVWFVHSIKQGAEIGTCLQKAGKKVLYLNRKTFESEYPKCKSEKWDFVITTDISEMGANFKADRVIDPRKTIKPILLDGRVSMQGPIAITPASAAQRRGRIGRNPEKLGDIYAYSGNVSSDNEGHVSWTEARMLLDNVHVQGGVVAQLYTPEREKTEAYEGEFKLKTNQRKVFSELIRTGDLPVWLAFQVASANVEYHDRKWCFDGPNEHLLLENNQEIEVWTRQGQRRVLKPRWLDGRITSDHLNLKSFKEFASGKR,soluble
9,KTLPRDEKEKQIADSKERLKSDTQKVKDAKNADAIKKAFEEGKVNIPQAHIPGDLNKDKEKLLAELKQKADDTEKAIDVDKT,not soluble
10,LAIFLIDLPPSDMERRLGDALTVYVDAMRYPRGTETLRAPMWLEHIRRRGWQAVAAVEVTAAEQAEAADTTALPSAAELSNAPMLGVAYGYPGAPGQWWQQQVVLGLQRSGFPRLAIARLMTSYFELTELHILPRAQGRGLGEALARRLLAGRDEDNVLLSTPETNGEDNRAWRLYRRLGFTDIIRGYHFAGDPRAFAILGRTLPL,not soluble
11,LDFDILTNDGTHRNMKLLIDLKNIFSRQLPKMPKEYIVKLVFDRHHESMVILKNKQKVIGGICFRQYKPQRFAEVAFLAVTANEQVRGYGTRLMNKFKDHMQKQNIEYLLTYADNFAIGYFKKQGFTKEHRMPQEKWKGYIKDYDGGTLMECYIHPYVDYGR,soluble
12,LDNEMLTLDIVASDLLTLQALNAARLKEAGAVDATFVTKAINEQPLNLGQGIWLSDSAEGNLRSAIAVSRAANAFDVDGETAAMLVSVAMNDDQPIAVLKRLADLLLDNKADRLLKADAATLLALLTSDDAPTDDV,not soluble
13,LEQVNDKRISPLRPMRLRLIPLKCKTQPKKGKLSLQSVQKIYVNPRSNGTFKRVPLAGDLFKSRMRQPERDMQKNKLHDSDWQSNM,soluble
14,LFTESAKAVLAIAQEEAKYFRHQSVGSEHLLLALVLEPNGIAGKTLRQLNTDTEDIREEIEHLSGYGTMQSPMGNNNLYLPYSPRAKQIFAYAGDEAKRLGAQKIGTEHLLLGLLRDEEILASRILVNLGLSLSKMRQLLLKKMG,not soluble
15,LGRLFGTDGVRGVANLELTAELAYKLGQAGAYVLTSETKHTPKILVGMDTRISGDMLEASLVAGLCSVGAEVACLGIAPTPTVAYLTRYYNADAGVVISASHNPYEFNGIKFFNSKGYKLSDALEERIESIILDNSEKIQLPTGEKIGRKIEIESPLDDYVNFIKSTIKGDLKGLKVAIDCANGASYQVAPVTFFELGADVCVINNEPDGVNINKDCGSTHIEQLQKFVIESGADVGLAFDGDADRVLAVDENGNMVDGDQIMAIIGLELKKQGKLTNNTIVATVMSNLGLDIMAKREGINIVKTKVGDRYVLENMLENGHVLGGEQSGHIIFLEHSTTGDGILTGAQLLNVVKSSGKKLSELASIMQVLPQVLMNARVSNQNKEKYLEDEVICEMCKELENEFRDEGRVLIRPSGTEPLVRVMIEGKDRDYIEKRALELVKVIEERLG,soluble
16,LGSPMAYFVENFWGEKNSGFDVLYHNMKHGQISTKELADFVRERATIEEAYSRSMTKLAKSASNYSQLGTFAPVWDVFKTSTEKLANCHLDLVRKLQELIKEVQKYGEEQVKSHKKTKEEVAGTLEAVQTIQSITQALQKSKENYNAKCVEQERLKKEGATQREIEKAAVKSKKATDTYKLYVEKYALAKADFEQKMTETAQKFQDIEETHLIHIKEIIGSLSNAIKEIHLQIGQVHEEFINNMANTTVESLIQKFAESKGTGKERPGLIEFEECD,soluble
17,LGTERQREHPFIVTEPGEVARGKKNGLDYLFHLYEQCREFLLQVQTIAKDRGEKCPTKVTNQVFRYAKKSGASYINKPKMRHYVHCYALHCLDEEASNALRRAFKERGENVGSWRQACYKPLVNIACRHGWDIDAVFNAHPRLSIWYVPTKLRQLCHLERNNAVAAAAALVGGISCTGSSTSGRGGCGGDDLRF,soluble
18,LKLTPRQYNDVYEVNYDFINNVRYLMDDVVRGYDYALERYYDFLDVRNDDLRWILSSAQYRRFMRAEHFYRPIYAHENKWHFRIYLVYNNVNFFYYGKPHHYASYCGGHYRTHFNNVSYYKTHYRDHYRHDVYDGHYRIRHDRMTYDMHRRRDFNIAVRPPQKEHHRPATPPQTRPNRPQIHPDRP,not soluble
19,LLHGDFELAVPGGPVAAYYAAPAGREQLPIVLVVQEIFGLHEHIKDVCRRLAHDGYLAVSVNLYQRQGDASRYDNIPGLVAELVSKVPDEQVHADLDASLAWAAAHGGDGARVGVTGFCWGGRTTWMYAARNPAVKAGVAWYGRLSSGHGPLIKQVPLDVAGSLHAPVLGLYGGKDESIPLDDVRAMEARLQQGGAPAQASRIVVYPQAGHAFLADYRPSYRAADAQDGWRRMLDWFALYL,not soluble
20,LLSPPIALKPLDSSAKWRIIYWNPNGCDKTCLKQLNMLGRVRLSFGRKLYQVDEWLLLSNKDSLIAEELKPILKEQDIHVAALSLTEMSKLSTLYPEAKIFIANPDNYLILSYQPGCNPGDIYKDLKLLLNTTEIKSG,soluble
21,LMINDVPGLVTAWWDEELQALRIKWFTEYAEGSAVADAVEFAMTYVNENGVKNWLCDLSESQEALKAEDQEWVQTEFKRLIAESSLEKVVLIPPLPETGQDTEWLKDWEANTKRDYGGQIDARLLSEEGEIQRFFEKG,not soluble
22,LPGRFQRSDVERVVTACSAALGLSSACLRALLVMVHATRPSDWRDEQRDAVCFMQQVQVAARLGVTPRALRYQEARLERLGLLRRNVAADGSRGRFGGGDLIQGISFAPLIEAFPSLLRIAEQLEAAERERQVLRRRVSAARRILSQTLTRLAALDKAVPGLTEVLASMPRRYDALDGSELGALLQRVDKAAREALRHLEVQQVSSGVPENSFRPHIQDTTQENPVCSGSSAIERTARKRADSIKPDAAPDGTASCYEKKHGLADRGFKPRYLDTFTPTQLYEAASPDMQMYLDAGRRSDSTLTAHDFIQAAIAILPALGVNASAWDEAADTMGDLPAALCVLVLDANRYRPVNPVWSPGGMLRAMTARARSGGLNLHGSLIALQRRAG,not soluble
23,LQELETAVAETGFSRFPVTGKDGSYLGYVHIKDVLDRFDHSSPDTIIHRSEIRPLIIVDAAGTMDEALQSMHSKSAHMAQVRDRGLLLGVITLEDLIEEYVGTFSDWTHEQS,not soluble
24,LQERELAKAAQEAEKKGEAFPDVPVTLYEAIVRDYTGRTPEAREQTLIVTHLNEDRRVLNSMIQDALAKPGEQQVTVPVLTTANIRDGELRRLSTWEAHPGALALVDNVYHRIAGISKEDGLITLEDKAGNTRLISPREAAAEGVTLYNPETIRVGAGDRMRFTKSDRERGYVANSVWTVTAVSGDSVTLSDGKQTRVVRPGQDRAEQHIDLAYAITAHSAQGASETFAIALEGTEGGRKQMAGFESAYVALSRMKQHVQVYTDDRQGWVKAINSAEQKGTAHDVLEPKSEREMMNAERLFSTARELRDVAAGRAVLRNAGLAQGDSRARFIAPGRKYPQPYVALPAFDRNGKSAGIWLNPLTTDDGAGLRGFTGEGRVKGSEEAQFVALQGSRNGESLLAGSMQDGVRIARENPDSGVVVRIVGDGRPWNPVAITGGRVWGDIPDSNVQPGAGNGEPVTAEILAQRQAEEAVRRETERRADEIVRKMAEDKSDLPEEKTAQAVREIAGQEQDRMTPPEREPPLPESVLREPQRER,not soluble
25,LRVFSSDGKLIAEFGEMRRTPIRFAEIPPNFINALLSAEDDNFANHYGVDPSSLMRAATQLVKSGHIQSGGSTITMQVAKNFFLTSERSFSRKTTEILLALQIERQLTKDEILELYVNKIYLGNRAYGIEAAAQVYYGKSIRDVSLAQMAMIAGLPKAPSRFNPLANA,not soluble
26,LTPILGYGRVRAKVSADIDFTSYEQTQELFNPELSALRSEQTMQESRNASNEASGVPGTLSNTPQPNSSLGQKNNPQQNATPNNLPQQTSSDQMQAKDVRMQTTKNFELDKTISHTKNQPGTIKRLSVAVLVDNRPVMNDKTKKLEKKPLTKEEIEQIKLLVSDAIGLNVKRGDSLNVINSSF,not soluble

# Reference: the DeepSol protein solubility set
